Measured values: patent publication US20210388087A1 (Chugai, published 2021)
Numbering of substitutions follows the chain as printed. Each block holds one binder with its values, some of them ahead of it.

Target: T1, CD3 epsilon homodimer protein (UniProt P07766 23-126)
T1 construct: also called CD3 (CD3 epsilon)
Experiment: SPR, antibody over immobilised CD3e homodimer;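 also: SPR at 25 °C with CD3 epsilon homodimer amine-coupled to a CM4 sensor chip and antibody flowed over as analyte in HBS-EP+ running buffer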

T1 sequence (P07766 23-126): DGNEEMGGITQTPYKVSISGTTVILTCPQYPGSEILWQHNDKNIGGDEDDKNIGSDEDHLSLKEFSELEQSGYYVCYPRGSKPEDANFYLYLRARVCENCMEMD

KD ratio to GLS3000: 1.32
B1: CE115HA000/GLS3000 S27eK (antibody, IgG1, name in Kabat numbering, V domains shown)
VH: QVQLVESGGGVVQPGRSLRLSCAASGFTFSNAWMHWVRQAPGKGLEWVAQIKAKSNNYATYYAESVKGRFTISRDDSKNSLYLQMNSLKTEDTAVYYCRYVHYGAYYGVDAWGQGTTVTVSS
VL: DIVMTQSPLSLPVTPGEPASISCRSSQSLVHKNRNTYLHWYQQKPGQAPRLLIYKVSNRFSGVPDRFSGSGSGTDFTLKISRVEAEDVGVYYCGQGTQVPYTFGQGTKLEIK
notes: one-arm IgG1

KD ratio to GLS3000: 1.61
B2: CE115HA000/GLS3000 T92L (antibody, IgG1, name in Kabat numbering, V domains shown)
VH: B1 VH
VL: B1 VL with K32S, T97L
notes: one-arm IgG1

KD ratio to GLS3000: 1.59
B3: CE115HA000/GLS3000 T31E (antibody, IgG1, name in Kabat numbering, V domains shown)
VH: B1 VH
VL: B1 VL with K32S, T36E
notes: one-arm IgG1

KD ratio to GLS3000: 0.9
B4: CE115HA000/GLS3000 S52A (antibody, IgG1, name in Kabat numbering, V domains shown)
VH: B1 VH
VL: B1 VL with K32S, S57A
notes: one-arm IgG1

KD ratio to GLS3000: 1.01
B5: CE115HA000/GLS3000 S56T (antibody, IgG1, name in Kabat numbering, V domains shown)
VH: B1 VH
VL: B1 VL with K32S, S61T
notes: one-arm IgG1

KD ratio to GLS3000: 1.1
B6: CE115HA000/GLS3000 S56Y (antibody, IgG1, name in Kabat numbering, V domains shown)
VH: B1 VH
VL: B1 VL with K32S, S61Y
notes: one-arm IgG1

KD ratio to GLS3000: 1.01
B7: CE115HA000/GLS3000 S56I (antibody, IgG1, name in Kabat numbering, V domains shown)
VH: B1 VH
VL: B1 VL with K32S, S61I
notes: one-arm IgG1

KD ratio to GLS3000: 0.88
B8: CE115HA000/GLS3000 T31K (antibody, IgG1, name in Kabat numbering, V domains shown)
VH: B1 VH
VL: B1 VL with K32S, T36K
notes: one-arm IgG1

KD ratio to GLS3000: 0.98
B9: CE115HA000/GLS3000 S27eT (antibody, IgG1, name in Kabat numbering, V domains shown)
VH: B1 VH
VL: B1 VL with K32T
notes: one-arm IgG1

KD ratio to GLS3000: 0.97
B10: CE115HA000/GLS3000 S56Q (antibody, IgG1, name in Kabat numbering, V domains shown)
VH: B1 VH
VL: B1 VL with K32S, S61Q
notes: one-arm IgG1

KD ratio to GLS3000: 1.32
B11: CE115HA000/GLS3000 S27eW (antibody, IgG1, name in Kabat numbering, V domains shown)
VH: B1 VH
VL: B1 VL with K32W
notes: one-arm IgG1

KD ratio to GLS3000: 0.81
B12: CE115HA000/GLS3000 T92S (antibody, IgG1, name in Kabat numbering, V domains shown)
VH: B1 VH
VL: B1 VL with K32S, T97S
notes: one-arm IgG1

KD ratio to GLS3000: 0.96
B13: CE115HA000/GLS3000 S56H (antibody, IgG1, name in Kabat numbering, V domains shown)
VH: B1 VH
VL: B1 VL with K32S, S61H
notes: one-arm IgG1

KD ratio to GLS3000: 0.93
B14: CE115HA000/GLS3000 S56M (antibody, IgG1, name in Kabat numbering, V domains shown)
VH: B1 VH
VL: B1 VL with K32S, S61M
notes: one-arm IgG1

KD ratio to GLS3000: 1.18
B15: CE115HA000/GLS3000 S56A (antibody, IgG1, name in Kabat numbering, V domains shown)
VH: B1 VH
VL: B1 VL with K32S, S61A
notes: one-arm IgG1

KD ratio to GLS3000: 1.21
B16: CE115HA000/GLS3000 S56K (antibody, IgG1, name in Kabat numbering, V domains shown)
VH: B1 VH
VL: B1 VL with K32S, S61K
notes: one-arm IgG1

KD ratio to GLS3000: 1.11
B17: CE115HA000/GLS3000 S27eM (antibody, IgG1, name in Kabat numbering, V domains shown)
VH: B1 VH
VL: B1 VL with K32M
notes: one-arm IgG1

KD ratio to GLS3000: 0.98
B18: CE115HA000/GLS3000 S56P (antibody, IgG1, name in Kabat numbering, V domains shown)
VH: B1 VH
VL: B1 VL with K32S, S61P
notes: one-arm IgG1

KD ratio to GLS3000: 1.15
B19: CE115HA000/GLS3000 S56R (antibody, IgG1, name in Kabat numbering, V domains shown)
VH: B1 VH
VL: B1 VL with K32S, S61R
notes: one-arm IgG1

KD ratio to GLS3000: 1.06
B20: CE115HA000/GLS3000 S27eP (antibody, IgG1, name in Kabat numbering, V domains shown)
VH: B1 VH
VL: B1 VL with K32P
notes: one-arm IgG1

KD ratio to GLS3000: 0.94
B21: CE115HA000/GLS3000 S56V (antibody, IgG1, name in Kabat numbering, V domains shown)
VH: B1 VH
VL: B1 VL with K32S, S61V
notes: one-arm IgG1

KD ratio to GLS3000: 11.2
B22: CE115HA000/GLS3000 T92D (antibody, IgG1, name in Kabat numbering, V domains shown)
VH: B1 VH
VL: B1 VL with K32S, T97D
notes: one-arm IgG1

KD ratio to GLS3000: 0.99
B23: CE115HA000/GLS3000 S56G (antibody, IgG1, name in Kabat numbering, V domains shown)
VH: B1 VH
VL: B1 VL with K32S, S61G
notes: one-arm IgG1

KD ratio to GLS3000: 1.91
B24: CE115HA000/GLS3000 T92I (antibody, IgG1, name in Kabat numbering, V domains shown)
VH: B1 VH
VL: B1 VL with K32S, T97I
notes: one-arm IgG1

KD ratio to GLS3000: 26.7
B25: CE115HA000/GLS3000 T92P (antibody, IgG1, name in Kabat numbering, V domains shown)
VH: B1 VH
VL: B1 VL with K32S, T97P
notes: one-arm IgG1

KD ratio to GLS3000: 30.9
B26: CE115HA000/GLS3000 T31D (antibody, IgG1, name in Kabat numbering, V domains shown)
VH: B1 VH
VL: B1 VL with K32S, T36D
notes: one-arm IgG1

KD ratio to GLS3000: 4.46
B27: CE115HA000/GLS3000 T31N (antibody, IgG1, name in Kabat numbering, V domains shown)
VH: B1 VH
VL: B1 VL with K32S, T36N
notes: one-arm IgG1

KD ratio to GLS3000: 0.9
B28: CE115HA000/GLS3000 S56N (antibody, IgG1, name in Kabat numbering, V domains shown)
VH: B1 VH
VL: B1 VL with K32S, S61N
notes: one-arm IgG1

KD ratio to GLS3000: 1.35
B29: CE115HA000/GLS3000 S27eR (antibody, IgG1, name in Kabat numbering, V domains shown)
VH: B1 VH
VL: B1 VL with K32R
notes: one-arm IgG1

KD ratio to GLS3000: 1.03
B30: CE115HA000/GLS3000 S56L (antibody, IgG1, name in Kabat numbering, V domains shown)
VH: B1 VH
VL: B1 VL with K32S, S61L
notes: one-arm IgG1

KD ratio to GLS3000: 1.1
B31: CE115HA000/GLS3000 S27eY (antibody, IgG1, name in Kabat numbering, V domains shown)
VH: B1 VH
VL: B1 VL with K32Y
notes: one-arm IgG1

KD ratio to GLS3000: 0.94
B32: CE115HA000/GLS3000 S52D (antibody, IgG1, name in Kabat numbering, V domains shown)
VH: B1 VH
VL: B1 VL with K32S, S57D
notes: one-arm IgG1

KD ratio to GLS3000: 1.02
B33: CE115HA000/GLS3000 S52Y (antibody, IgG1, name in Kabat numbering, V domains shown)
VH: B1 VH
VL: B1 VL with K32S, S57Y
notes: one-arm IgG1

KD ratio to GLS3000: 0.91
B34: CE115HA000/GLS3000 S56E (antibody, IgG1, name in Kabat numbering, V domains shown)
VH: B1 VH
VL: B1 VL with K32S, S61E
notes: one-arm IgG1

KD ratio to GLS3000: 1.1
B35: CE115HA000/GLS3000 T31I (antibody, IgG1, name in Kabat numbering, V domains shown)
VH: B1 VH
VL: B1 VL with K32S, T36I
notes: one-arm IgG1

KD ratio to GLS3000: 1.01
B36: CE115HA000/GLS3000 S27eN (antibody, IgG1, name in Kabat numbering, V domains shown)
VH: B1 VH
VL: B1 VL with K32N
notes: one-arm IgG1

KD ratio to GLS3000: 19.6
B37: CE115HA000/GLS3000 T92E (antibody, IgG1, name in Kabat numbering, V domains shown)
VH: B1 VH
VL: B1 VL with K32S, T97E
notes: one-arm IgG1

KD ratio to GLS3000: 1.08
B38: CE115HA000/GLS3000 S27eQ (antibody, IgG1, name in Kabat numbering, V domains shown)
VH: B1 VH
VL: B1 VL with K32Q
notes: one-arm IgG1

KD ratio to GLS3000: 0.95
B39: CE115HA000/GLS3000 S27eV (antibody, IgG1, name in Kabat numbering, V domains shown)
VH: B1 VH
VL: B1 VL with K32V
notes: one-arm IgG1

KD ratio to GLS3000: 1.06
B40: CE115HA000/GLS3000 S27eL (antibody, IgG1, name in Kabat numbering, V domains shown)
VH: B1 VH
VL: B1 VL with K32L
notes: one-arm IgG1

KD ratio to GLS3000: 7.38
B41: CE115HA000/GLS3000 S52P (antibody, IgG1, name in Kabat numbering, V domains shown)
VH: B1 VH
VL: B1 VL with K32S, S57P
notes: one-arm IgG1

KD ratio to GLS3000: 1.12
B42: CE115HA000/GLS3000 S56W (antibody, IgG1, name in Kabat numbering, V domains shown)
VH: B1 VH
VL: B1 VL with K32S, S61W
notes: one-arm IgG1

KD ratio to GLS3000: 1.12
B43: CE115HA000/GLS3000 S56F (antibody, IgG1, name in Kabat numbering, V domains shown)
VH: B1 VH
VL: B1 VL with K32S, S61F
notes: one-arm IgG1

KD ratio to GLS3000: 1.01
B44: CE115HA000/GLS3000 S52Q (antibody, IgG1, name in Kabat numbering, V domains shown)
VH: B1 VH
VL: B1 VL with K32S, S57Q
notes: one-arm IgG1

KD ratio to GLS3000: 1.11
B45: CE115HA000/GLS3000 S56D (antibody, IgG1, name in Kabat numbering, V domains shown)
VH: B1 VH
VL: B1 VL with K32S, S61D
notes: one-arm IgG1

KD ratio to GLS3000: 1.35
B46: CE115HA000/GLS3000 T92A (antibody, IgG1, name in Kabat numbering, V domains shown)
VH: B1 VH
VL: B1 VL with K32S, T97A
notes: one-arm IgG1

KD ratio to GLS3000: 10.8
B47: CE115HA000/GLS3000 T31P (antibody, IgG1, name in Kabat numbering, V domains shown)
VH: B1 VH
VL: B1 VL with K32S, T36P
notes: one-arm IgG1
